Test results published in US20190040149A1 (Innovent, published 2019).

How the values were obtained:
[1] = molecular target: T1, human PD-1 on cells (CHO cells; T cells in the mixed lymphocyte reaction) (human, UniProt Q15116 25-288); assay: cell-based or functional assay
[2] = molecular target: T1, human PD-1 on cells (CHO cells; T cells …); assay: cell-based or functional assay; remark: listed apart in the source
murine PD-1 on CHO cells = molecular target: T2, murine PD-1 on CHO cells (mouse, UniProt Q02242 25-288); assay: flow cytometry on CHO cells with murine PD-1
T2 sequence: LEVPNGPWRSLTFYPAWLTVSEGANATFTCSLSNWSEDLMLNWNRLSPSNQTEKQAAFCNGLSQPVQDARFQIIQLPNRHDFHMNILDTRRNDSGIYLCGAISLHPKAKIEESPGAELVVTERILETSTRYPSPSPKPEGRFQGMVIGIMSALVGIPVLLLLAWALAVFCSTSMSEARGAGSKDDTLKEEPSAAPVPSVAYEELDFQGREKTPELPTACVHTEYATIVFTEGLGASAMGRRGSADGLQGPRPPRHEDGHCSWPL
Procedure: (§1) Cells are then washed 3×, and are incubated with a secondary antibody (PE-labelled, at final concentration of 5 μg/ml) in PBS 1% BSA for 30 min on ice (protected from light). Cells are washed 3× and analyzed via flow cytometry. Flow cytometry is performed on an Accuri C6 system (BD Biosciences) and MFIs are calculated on the C6 software. EC50 s are calculated on Graphpad software.

[3] = molecular target: T3, human PD-1 (soluble antigen of the MSD assay, b-PD-1 monomer) (human, UniProt Q15116 25-170, limits assumed, biotinylated (b-PD-1), site not stated); assay: MSD solution equilibrium titration, avid KD
T3 construct: The antigen format of the 'avid' measurement is not described
Procedure: (§2) Equilibrium affinity measurements are performed as previously described (Estep, P., et al., MAbs, 2013. 5(2): p. 270-8). Solution equilibrium titrations (SET) are performed in PBS+0.1% IgG-Free BSA (PBSF) where antigen (b-PD-1 monomer) is held constant at 10-100 pM and is incubated with 3- to 5-fold serial dilutions of Fab or mAbs starting at 5-100 nM (experimental condition is sample dependent). Antibodies diluted at 20 nM in PBS are coated onto standard bind MSD-ECL plates overnight at 4° C. or at room temperature for 30 min. Plates are blocked with BSA for 30 min whilst shaking at 700 rpm. Plates are then washed 3× with wash buffer (PBSF+0.05% Tween 20). SET samples are applied and incubated on the plates for 150 s with shaking at 700 rpm followed by one wash. Antigen captured on a plate is detected with 250 ng/mL sulfotag-labeled streptavidin in PBSF by incubation on the plate for 3 min. The plates are washed three times with wash buffer and are then read on the MSD Sector Imager 2400 instrument using 1× Read Buffer T with surfactant. The percent free antigen is plotted as a function of titrated antibody in Prism and fit to a quadratic equation to extract the KD. To improve throughput, liquid handling robots are used throughout MSD-SET experiments, including for SET sample preparation.

[4] = molecular target: T4, murine PD-1 (soluble antigen of the MSD assay) (mouse, UniProt Q02242 25-169, limits assumed); assay: MSD solution equilibrium titration, avid KD
T4 construct: also called mouse PD-1
T4 sequence: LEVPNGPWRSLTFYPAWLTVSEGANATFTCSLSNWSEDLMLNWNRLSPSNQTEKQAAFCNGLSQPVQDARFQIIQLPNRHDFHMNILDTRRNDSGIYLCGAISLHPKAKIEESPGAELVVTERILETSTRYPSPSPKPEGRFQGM
Procedure: as §2

[5] = molecular target: T1, human PD-1 on cells (CHO cells; T cells …); assay: flow cytometry on CHO cells with human PD-1 (n=1)
Procedure: as §1

[6] = molecular target: T3, human PD-1 (soluble antigen of the MSD …); assay: MSD solution equilibrium titration, monovalent KD
Procedure: as §2

[7] = molecular target: T4, murine PD-1 (soluble antigen of the MSD …); assay: MSD solution equilibrium titration, monovalent KD
Procedure: as §2

human PD-1_HIS = molecular target: T5, human PD-1_HIS (human, UniProt Q15116 25-167, limits assumed); assay: bio-layer interferometry (ForteBio), human PD-1_HIS in solution, IgG on sensor tip
T5 construct: not shown: His tag
Procedure: Briefly, ForteBio affinity measurements were performed by loading IgGs online onto AHQ sensors. Sensors were equilibrated off-line in assay buffer for 30 min and then monitored on-line for 60 seconds for baseline establishment. Sensors with loaded IgGs were exposed to 100 nM antigen for 5 min, afterwards they were transferred to assay buffer for 5 min for off-rate measurement. Kinetics was analyzed using the 1:1 binding model.

[8] = molecular target: T1, human PD-1 on cells (CHO cells; T cells …); assay: flow cytometry, remaining PD-L2-FITC signal after 100 nM antibody; competitor PD-L2-FITC
Procedure: CHO cells 0.2×10⁶ are incubated with the experimental antibody (100 nM) for 30 min in PBS 1% BSA on ice. […] Cells are washed 3× and analyzed via flow cytometry. Flow cytometry is performed on an Accuri C6 system (BD Biosciences) and MFIs are calculated on the C6 software. EC50 s are calculated on Graphpad software.

T1 sequence (Q15116 25-288 limits assumed): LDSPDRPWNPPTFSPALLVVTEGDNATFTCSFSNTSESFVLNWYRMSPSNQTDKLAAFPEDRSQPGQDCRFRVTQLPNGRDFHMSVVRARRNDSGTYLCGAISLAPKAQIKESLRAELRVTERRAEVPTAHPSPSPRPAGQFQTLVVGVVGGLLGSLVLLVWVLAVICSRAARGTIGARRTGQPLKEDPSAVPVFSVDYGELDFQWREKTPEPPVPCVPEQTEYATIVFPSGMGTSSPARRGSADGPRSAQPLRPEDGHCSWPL
T3 sequence (Q15116 25-170 limits assumed): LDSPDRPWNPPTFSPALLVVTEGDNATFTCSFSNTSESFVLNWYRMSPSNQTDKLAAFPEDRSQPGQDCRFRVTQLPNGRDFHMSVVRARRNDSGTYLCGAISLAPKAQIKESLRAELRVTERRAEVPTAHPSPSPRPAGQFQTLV
T5 sequence (Q15116 25-167 limits assumed): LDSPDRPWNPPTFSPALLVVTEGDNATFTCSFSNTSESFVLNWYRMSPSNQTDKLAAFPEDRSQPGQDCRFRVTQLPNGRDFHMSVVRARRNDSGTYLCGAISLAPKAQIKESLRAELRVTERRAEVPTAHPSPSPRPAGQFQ

- IL-2 in supernatant, 0.01 nM IgG [1]: 580 pg/mL
- IL-2 in supernatant, 0.1 nM IgG [1]: 614 pg/mL
- IL-2 in supernatant, 1 nM IgG [1]: 978 pg/mL
- IL-2 in supernatant, 10 nM IgG [1]: 1360 pg/mL
- IL-2 in supernatant, 100 nM IgG [1]: 1980 pg/mL
- IL-2 secretion fold change vs. IgG control, 0.01 nM IgG [1]: 1.13 fold
- IL-2 secretion fold change vs. IgG control, 0.1 nM IgG [1]: 1.21 fold
- IL-2 secretion fold change vs. IgG control, 1 nM IgG [1]: 1.95 fold
- IL-2 secretion fold change vs. IgG control, 10 nM IgG [1]: 2.61 fold
- IL-2 secretion fold change vs. IgG control, 100 nM IgG [1]: 3.2 fold
- IFNg secretion fold change vs. IgG control, 0.01 nM IgG [2]: 0.96 fold
- IFNg secretion fold change vs. IgG control, 0.1 nM IgG [2]: 1.26 fold
- IFNg secretion fold change vs. IgG control, 1 nM IgG [2]: 1.86 fold
- IFNg secretion fold change vs. IgG control, 10 nM IgG [2]: 2.01 fold
- IFNg secretion fold change vs. IgG control, 100 nM IgG [2]: 1.76 fold
- IFNγ in supernatant, 0.01 nM IgG [2]: 14300 pg/mL
- IFNγ in supernatant, 0.1 nM IgG [2]: 13800 pg/mL
- IFNγ in supernatant, 1 nM IgG [2]: 21600 pg/mL
- IFNγ in supernatant, 10 nM IgG [2]: 27100 pg/mL
- IFNγ in supernatant, 100 nM IgG [2]: 26300 pg/mL
- EC50 (murine PD-1 on CHO cells): 5.04 nM
- Kd [3]: 0.022 nM
- Kd [4]: 0.33 nM
- EC50 [5]: 4.59 nM
- Kd [6]: 0.091 nM
- Kd [7]: 1.1 nM
- Kd (human PD-1_HIS): 1.2 nM
- MFI (PD-L2-FITC) [8]: 38700 MFI
B1: Antibody E, IgG1 format expressed in yeast (antibody, V domains shown)
VH: QVQLVQSGAEVKKPGASVKVSCKASGYTFTSNYMHWVRQAPGQGLEWMGIINPSEGSTGYAQKFQGRVTMTRDTSTSTVYMELSSLRSEDTAVYYCAKEGVADGYGLVDVWGQGTMVTVSS
VL: EIVLTQSPATLSLSPGERATLSCRASQSVSSYLAWYQQKPGQAPRLLIYDASKRATGIPARFSGSGSGTDFTLTISSLEPEDFAVYYCDQRNNWPLTFGGGTKVEIK
notes: Tested in IgG1 format, expressed in yeast
